Source: patent US20120076782A1 (MorphoSys, published 2012)
Where two headings read alike, the source gives them in different places.

Columns and labels:
CD20 on cell lines = CD20 on cell lines (UniProt P11836); assay: cell-based or functional assay
[1] = biological target: T1, human CD38 on cells or tissue (human, UniProt P28907 1-300)
[2] = biological target: T1, human CD38 on cells or tissue; assay: FACS Scatchard, IgG1 on RPMI8226 MM cells; mean of at least 2 determinations
[3] = biological target: T1, human CD38 on cells or tissue; assay: cell-based or functional assay
[4] = biological target: T1, human CD38 on cells or tissue; assay: cell-based or functional assay; remark: listed apart in the source
[5] = biological target: T1, human CD38 on cells or tissue; assay: cell-based or functional assay; remark: listed apart in the source
[6] = biological target: T2, hCD38 Fc fusion protein (aa 45-273) (human, UniProt P28907 45-273); assay: ELISA; antigen coated at 5 µg/ml, anti-human Fab alkaline phosphatase conjugate, fluorescence Ex/Em 430/535 nm
T2 construct: Making of this construct is not described; also called C-terminally deleted format; not shown: Fc part (not described for this construct)

bovine serum albumine [7] = biological target: T3, bovine serum albumine (bovine, UniProt P02769 25-607); assay: as above
T3 construct: Control antigen coated on ELISA wells; also called BSA

[8] = biological target: T4, cynomolgus monkey CD38 on cells or tissue (cynomolgus monkey, UniProt Q5VAN0 1-301); assay: FACS on lymphocytes; IHC on spleen, lymph-nodes
T4 construct: whole, on cells

[9] = biological target: T2, hCD38 Fc fusion protein (aa 45-273); assay: ELISA; antigen coated at 5 µg/ml, anti-murine Fab alkaline phosphatase conjugate, fluorescence Ex/Em 430/535 nm
bovine serum albumine [10] = biological target: T3, bovine serum albumine; assay: as above
[11] = biological target: T5, hCD38 Fc fusion protein (aa 45-300) (human, UniProt P28907 45-300); assay: SPR (Biacore 3000), Fab over directly immobilized CD38-Fc fusion protein; mean of at least 2 determinations
T5 construct: produced in HEK293; also called full-length hCD38 Fc-fusion protein; soluble CD38-Fc

[12] = biological target: T1, human CD38 on cells or tissue; assay: cell-based or functional assay; remark: listed apart in the source
[13] = biological target: T1, human CD38 on cells or tissue; assay: cell-based or functional assay; remark: listed apart in the source

T3 sequence (P02769 25-607 limits assumed): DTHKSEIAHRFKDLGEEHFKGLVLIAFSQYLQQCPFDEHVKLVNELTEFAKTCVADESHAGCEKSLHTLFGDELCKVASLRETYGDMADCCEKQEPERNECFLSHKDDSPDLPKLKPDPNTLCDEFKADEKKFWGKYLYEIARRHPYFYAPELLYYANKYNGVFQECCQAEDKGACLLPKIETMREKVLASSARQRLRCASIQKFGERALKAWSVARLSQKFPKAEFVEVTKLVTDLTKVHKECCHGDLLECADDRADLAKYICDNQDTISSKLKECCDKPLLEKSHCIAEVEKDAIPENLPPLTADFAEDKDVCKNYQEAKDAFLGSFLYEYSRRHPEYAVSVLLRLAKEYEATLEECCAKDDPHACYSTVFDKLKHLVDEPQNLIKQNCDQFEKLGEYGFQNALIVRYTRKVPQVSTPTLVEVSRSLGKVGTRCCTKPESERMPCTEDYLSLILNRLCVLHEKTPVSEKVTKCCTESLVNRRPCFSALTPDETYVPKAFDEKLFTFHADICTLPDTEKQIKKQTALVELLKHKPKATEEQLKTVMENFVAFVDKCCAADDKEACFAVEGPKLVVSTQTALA
CD20 on cell lines, sequence (P11836 whole entry): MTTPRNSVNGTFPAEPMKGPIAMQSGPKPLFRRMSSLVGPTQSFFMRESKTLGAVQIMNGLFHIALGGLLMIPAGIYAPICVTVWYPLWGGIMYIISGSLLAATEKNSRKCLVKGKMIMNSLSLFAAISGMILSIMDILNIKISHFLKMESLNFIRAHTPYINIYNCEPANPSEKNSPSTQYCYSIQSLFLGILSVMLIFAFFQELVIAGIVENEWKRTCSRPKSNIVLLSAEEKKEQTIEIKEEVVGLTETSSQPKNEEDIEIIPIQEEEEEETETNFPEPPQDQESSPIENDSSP
T4 sequence (Q5VAN0 whole entry): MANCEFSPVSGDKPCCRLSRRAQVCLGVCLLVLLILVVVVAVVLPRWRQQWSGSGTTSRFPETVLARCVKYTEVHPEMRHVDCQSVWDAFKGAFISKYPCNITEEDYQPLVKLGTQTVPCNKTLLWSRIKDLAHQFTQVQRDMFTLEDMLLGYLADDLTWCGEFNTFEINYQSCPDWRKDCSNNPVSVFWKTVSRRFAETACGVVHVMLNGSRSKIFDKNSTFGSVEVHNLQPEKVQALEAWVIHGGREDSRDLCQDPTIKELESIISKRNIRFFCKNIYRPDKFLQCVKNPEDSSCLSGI

Question: For Rituximab (antibody), which Namalwa (max. spec. Killing), o/n incubation (CD20 on cell lines) is on record?
Answer: Its Namalwa (max. spec. Killing), o/n incubation is < 1%.

Question: And the Raji (max. spec. killing), o/n incubation (CD20 on cell lines)?
Answer: Its Raji (max. spec. killing), o/n incubation is 9%.

Question: How did the max. specific killing in ADCC, NCI-H929 cells (MM), E:T 30:1, 5 µg/ml; column PC [1] turn out when chimeric OKT10 (antibody) was run?
Answer: The max. specific killing in ADCC, NCI-H929 cells (MM), E:T 30:1, 5 µg/ml; column PC was 54%.

Question: What about the Kd [2] of the same molecule?
Answer: Its Kd is 8.28 nM.

Question: What about the ADCC EC50 [nM], LP-1 target cells [3] of the same molecule?
Answer: Its ADCC EC50 [nM], LP-1 target cells is 5.23 nM.

Question: What about the ADCC EC50 [nM], RPMI8226 target cells [3] of the same molecule?
Answer: The ADCC EC50 [nM], RPMI8226 target cells was 4.1 nM.

Question: And the CDC EC50 [nM], CHO-transfectants [3]?
Answer: Its CDC EC50 [nM], CHO-transfectants is 9.3 nM.

B1: MOR03080 human IgG1 (antibody, V domains shown)
VH: QVQLVESGGGLVQPGGSLRLSCAASGFTFSSYGMHWVRQAPGKGLEWVSNIYSDGSNTFYADSVKGRFTISRDNSKNTLYLQMNSLRAEDTAVYYCARNMYRWPFHYFFDYWGQGTLVTVSS
VL: DIELTQPPSVSVAPGQTARISCSGDNIGNKYVSWYQQKPGQAPVVVIYGDNNRPSGIPERFSGSNSGNTATLTISGTQAEDEADYYCSSYDSSYFVFGGGTKLTVLG
notes: also called MAb#3
Question: What does the source list for B1?
Answer: MM-samples (max. spec. Killing), 4 hrs incubation [4]: 4%; Namalwa (max. spec. Killing), o/n incubation [4]: < 1%; Raji (max. spec. killing), o/n incubation [4]: 4%; ADCC EC50 [nM], LP-1 target cells [5]: 0.17 nM; ADCC EC50 [nM], RPMI8226 target cells [5]: 0.05 nM; CDC EC50 [nM], CHO-transfectants (mean from 2 determinations) [5]: 3.2 nM; CDC EC50 [nM], CHO-transfectants (mean from 3 determinations) [5]: 2.93 nM; binding result [6]: no binding (tested: 10 µg/ml); binding result (bovine serum albumine [7]): no binding (tested: 10 µg/ml); Kd [2]: 0.47 nM

B2: MOR03080 human-mouse chimeric IgG2a (antibody, V domains shown)
VH: B1 VH
VL: B1 VL
notes: Chimeric IgG2a: human variable regions of MOR03080 and murine constant regions; also called MAb#3 (chimeric: human variable domaine/murine Fc 2a); mu03080
Question: Does B2 bind [8]?
Answer: Result: binds

Question: Does B2 bind [9]?
Answer: Result: no binding (tested: 10 µg/ml)

Question: Does B2 bind (bovine serum albumine [10])?
Answer: Result: no binding (tested: 10 µg/ml)

B3: MOR03080 Fab (Fab, V domains shown)
VH: B1 VH
VL: B1 VL
notes: also called antibody no
Question: Which Kd [11] does the source give for B3 here?
Answer: The Kd was 27.5 nM.

B4: MOR03100 human IgG1 (antibody, V domains shown)
VH: QVQLVESGGGLVQPGGSLRLSCAASGFTFSSNGMSWVRQAPGKGLEWVSNISYLSSSTYYADSVKGRFTISRDNSKNTLYLQMNSLRAEDTAVYYCARFYGYFNYADVWGQGTLVTVSS
VL: DIELTQPPSVSVAPGQTARISCSGDNIGHYYASWYQQKPGQAPVLVIYRDNDRPSGIPERFSGSNSGNTATLTISGTQAEDEADYYCQSYDYLHDFVFGGGTKLTVLG
notes: also called LAC 3100; MAb#4
Question: Which “ADCC EC50 [nM], LP-1 target cells” value [5] does the source give for B4 here?
Answer: Its value is 1 nM.

Question: What about the “ADCC EC50 [nM], RPMI8226 target cells” value [5] of the same molecule?
Answer: The value was 0.28 nM.

Question: And the “CDC EC50 [nM], CHO-transfectants (mean from 2 determinations)” value [5]?
Answer: Its value is 10.9 nM.

Question: What about the “CDC EC50 [nM], CHO-transfectants (mean from 4 determinations)” value [5] of the same molecule?
Answer: The value was 13.6 nM.

Question: Does B4 bind [6]?
Answer: Result: no binding (tested: 10 µg/ml)

Question: Does B4 bind (bovine serum albumine [7])?
Answer: Result: no binding (tested: 10 µg/ml)

Question: What about the Kd [2] of the same molecule?
Answer: Its Kd is 6.31 nM.

B5: MOR03100 Fab (Fab, V domains shown)
VH: B4 VH
VL: B4 VL
notes: also called LAC 3100; antibody no; 3100
Question: How did the Kd [11] turn out when B5 was run?
Answer: Its Kd is 10 nM.

B6: MOR03077 human IgG1 (antibody, V domains shown)
VH: QVQLVQSGAEVKKPGASVKVSCKASGYTFTSYSINWVRQAPGQGLEWMGYIDPNRGNTNYAQKFQGRVTMTRDTSISTAYMELSSLRSEDTAVYYCAREYIYFIHGMLDFWGQGTLVTVSS
VL: DIVMTQSPLSLPVTPGEPASISCRSSQSLLFIDGNNYLNWYLQKPGQSPQLLIYLGSNRASGVPDRFSGSGSGTDFTLKISRVEAEDVGVYYCQQYSSKSATFGQGTKVEIKR
notes: also called MAb#1
Question: For B6, which “ADCC EC50 values in [nM], MM Samples (purified primary MM-cells)” value [12] is on record?
Answer: Its value is 0.08 nM.

Question: What about the “MM-samples (max. spec. Killing), 4 hrs incubation” value [4] of the same molecule?
Answer: Its value is 21%.

Question: And the “Namalwa (max. spec. Killing), o/n incubation” value [4]?
Answer: Its value is 11%.

Question: And the “Raji (max. spec. killing), o/n incubation” value [4]?
Answer: The value was 21%.

Question: And the “CDC EC50, LP-1 cells” value [13]?
Answer: The value was 5.6 nM.

Question: What about the “CDC EC50 on hCD38-transfectants, fold better than reference antibody chOKT10” value [13] of the same molecule?
Answer: Its value is 3 fold.

Question: And the “ADCC EC50 [nM], LP-1 target cells” value [5]?
Answer: The value was 0.6 nM.

Question: And the “ADCC EC50 [nM], RPMI8226 target cells” value [5]?
Answer: The value was 0.08 nM.

Question: What about the “CDC EC50 [nM], CHO-transfectants (mean from 2 determinations)” value [5] of the same molecule?
Answer: The value was 0.8 nM.

Question: What about the “CDC EC50 [nM], CHO-transfectants (mean from 3 determinations)” value [5] of the same molecule?
Answer: The value was 0.94 nM.

Question: Does B6 bind [6]?
Answer: Result: no binding (tested: 10 µg/ml)

Question: Does B6 bind (bovine serum albumine [7])?
Answer: Result: no binding (tested: 10 µg/ml)

Question: What about the Kd [2] of the same molecule?
Answer: Its Kd is 0.89 nM.

B7: MOR03077 Fab (Fab, V domains shown)
VH: B6 VH
VL: B6 VL
notes: also called antibody no
Question: B7 was tested. Which Kd [11] did it give?
Answer: Its Kd is 56 nM.

B8: MOR03079 human IgG1 (antibody, V domains shown)
VH: QVQLVESGGGLVQPGGSLRLSCAASGFTFSNYGMHWVRQAPGKGLEWVSNIRSDGSWTYYADSVKGRFTISRDNSKNTLYLQMNSLRAEDTAVYYCARRYWSKSHASVTDYWGQGTLVTVSS
VL: DIQMTQSPSSLSASVGDRVTITCRASQDISAFLNWYQQKPGKAPKLLIYKVSNLQSGVPSRFSGSGSGTDFTLTISSLQPEDFATYYCQQAYSGSITFGQGTKVEIKR
notes: also called MAb#2
Question: With B8 as the molecule, how does the “MM-samples (max. spec. Killing), 4 hrs incubation” value [4] read?
Answer: Its value is 24%.

Question: And the “Namalwa (EC50), killing by cross-linking” value [4]?
Answer: The value was 0.08 nM.

Question: And the “Namalwa (max. spec. Killing), o/n incubation” value [4]?
Answer: The value was 18%.

Question: What about the “Raji (EC50), killing by cross-linking” value [4] of the same molecule?
Answer: The value was 0.08 nM.

Question: What about the “Raji (max. spec. killing), o/n incubation” value [4] of the same molecule?
Answer: Its value is 21%.

Question: And the “CDC EC50, LP-1 cells” value [13]?
Answer: The value was 0.55 nM.

Question: And the “ADCC EC50 [nM], LP-1 target cells” value [5]?
Answer: Its value is 0.09 nM.

Question: What about the “ADCC EC50 [nM], RPMI8226 target cells” value [5] of the same molecule?
Answer: The value was 0.04 nM.

Question: What about the “CDC EC50 [nM], CHO-transfectants” value [5] of the same molecule?
Answer: Its value is 0.41 nM.

Question: Does B8 bind [6]?
Answer: Result: no binding (tested: 10 µg/ml)

Question: Does B8 bind (bovine serum albumine [7])?
Answer: Result: no binding (tested: 10 µg/ml)

Question: What about the Kd [2] of the same molecule?
Answer: Its Kd is 0.6 nM.

B9: MOR03079 human-mouse chimeric IgG2a (antibody, V domains shown)
VH: B8 VH
VL: B8 VL
notes: Chimeric IgG2a: human variable regions of MOR03079 fused to murine Fc gamma 2a constant regions; also called MAb#2 (chimeric: human variable domaine/murine Fc 2a); mu03079
Question: Which results are given for B9?
Answer: binding result [9]: no binding (tested: 10 µg/ml); binding result (bovine serum albumine [10]): no binding (tested: 10 µg/ml)

B10: MOR03079 Fab (Fab, V domains shown)
VH: B8 VH
VL: B8 VL
notes: also called antibody no
Question: For B10, which Kd [11] is on record?
Answer: Its Kd is 2.4 nM.
